Usually Ki stands for the equilibrium dissociation constant of an inhibitor or competing ligand from its target. Read a low Ki as tighter binding. As a reminder, the Kd is the constant that tells how readily two partners part at equilibrium.

One molecule from patent US20190010498, “CHEMICALLY MODIFIED AMPA RECEPTOR RNA APTAMERS” (The Research Foundation for the State University of New York, published 2019) can be followed below.

Data set [1] has as its target T1, GluA2Qflip AMPA receptor (homomeric, Q/R site unedited) (UniProt P19491-2 P19491-2:22-883). The data set is described as follows: inhibition; whole-cell current recording, closed-channel (0.1 mM glutamate), -60 mV, 22 C. Conditions: tags: transiently expressed in HEK-293S cells; chain copies: 4 inferred. From the text:
Functional Characterization of FN1040 by Whole-Cell Recording. Using whole-cell current recording, we first tested each of the six putative RNA aptamers against GluA2Qflip, the SELEX target. […] To verify this, we tested the aptamer at increasing concentrations against the GluA2Qflip channel expressed in HEK-293 cells (FIG. 1b). On the closed-channel conformation, we observed a linear relationship between the A/A(I) value and the aptamer concentration (FIG. 1b). Using eq 1 (see Data Analysis of Whole-Cell Current Amplitude), we estimated that the inhibition constant, K, for the closed-channel form of GluA2Qflip was 2.3±0.7 μM (FIG. 1b).
Whole-Cell Current Recording. […] For recording of the NMDA channels, the intracellular solution contained (in mM) 140 CsCl, 1 MgCl₂, 0.1 EGTA, and 10 HEPES (pH 7.2 adjusted by Mg(OH)₂) and the extracellular solution contained 2 μM of glycine and (in mM) 135 NaCl, 5.4 KCl, 1.8 CaCl₂, 10 glucose and 5 HEPES (pH 7.2 adjusted by NaOH).¹⁰ The glutamate-induced whole-cell current was recorded using an Axopatch-200B amplifier at a cutoff frequency of 2-20 kHz by a built-in, eight-pole Bessel filter and digitized at 5-50 kHz sampling frequency using a Digidata 1322A from Axon Instruments (Molecular Devices, Sunnyvale, Calif.). […]

The target in data set [2] is T1, GluA2Qflip AMPA receptor (homomeric, …). Kind of data set: competition; homologous competition with 32P-FN1040, nylon filter; 150 mM NaCl, 3 mM KCl, 1 mM CaCl2, 1 mM MgCl2, 10 mM HEPES pH 7.4; 10 ng/ul tRNA; NBQX displaces about 50%, glutamate about 30%, BDZ-f/BDZ-g none. Conditions: tags: transiently expressed in HEK-293S cells; chain copies: 4 inferred. The source says: Binding Affinity of FN1040 on GluA2Qflip. The binding affinity, Kd, of FN1040 for GluA2Qflip was estimated from a homologous competitive binding experiment. In this experiment, intact GluA2Qflip receptors embedded in HEK-293 cell membrane fragments were mixed with ³²P-labeled or hot FN1040 (see RNA 5′-end Labeled with ³²P.). The unlabeled FN1040 (or cold FN1040) was used to compete with the hot FN1040 for the binding to GluA2Qflip receptors. As shown, the normalized radioactivity as a function of the cold FN1040 was determined (FIG. 1c).
Homologous Competitive Binding Assay. FN1040 was transcribed in a transcription reaction mixture with additional 0.4 μM of ³²P-α-ATP (800 Ci/mmol). The ³²P-FN1040 product was separated by 8M urea PAGE and recovered by electroelution method (Elutrap, GE Health). Before mixing with the cell membrane fragments, the RNA was run through a refolding procedure, i.e. 95° C./3′→50° C./30′→room temperature/30′. The binding mixture contained 0.6 nM of GluA2Qflip receptor, 10 ng/μl of yeast tRNA, 10 nM of ³²P-FN1040, and 0 to 1.5 μM of unlabeled FN1040 in the extracelluar buffer. […] The radioactivity remaining on the filter was counted in a scintillation counter (Beckman LS6500). […] Assuming a one-site binding model, we determined the Kd of the aptamer bound to the receptor by fitting the binding data to eq 2⁵² below, […]

T1 sequence (P19491 other isoform, or with tags, fused parts or gaps): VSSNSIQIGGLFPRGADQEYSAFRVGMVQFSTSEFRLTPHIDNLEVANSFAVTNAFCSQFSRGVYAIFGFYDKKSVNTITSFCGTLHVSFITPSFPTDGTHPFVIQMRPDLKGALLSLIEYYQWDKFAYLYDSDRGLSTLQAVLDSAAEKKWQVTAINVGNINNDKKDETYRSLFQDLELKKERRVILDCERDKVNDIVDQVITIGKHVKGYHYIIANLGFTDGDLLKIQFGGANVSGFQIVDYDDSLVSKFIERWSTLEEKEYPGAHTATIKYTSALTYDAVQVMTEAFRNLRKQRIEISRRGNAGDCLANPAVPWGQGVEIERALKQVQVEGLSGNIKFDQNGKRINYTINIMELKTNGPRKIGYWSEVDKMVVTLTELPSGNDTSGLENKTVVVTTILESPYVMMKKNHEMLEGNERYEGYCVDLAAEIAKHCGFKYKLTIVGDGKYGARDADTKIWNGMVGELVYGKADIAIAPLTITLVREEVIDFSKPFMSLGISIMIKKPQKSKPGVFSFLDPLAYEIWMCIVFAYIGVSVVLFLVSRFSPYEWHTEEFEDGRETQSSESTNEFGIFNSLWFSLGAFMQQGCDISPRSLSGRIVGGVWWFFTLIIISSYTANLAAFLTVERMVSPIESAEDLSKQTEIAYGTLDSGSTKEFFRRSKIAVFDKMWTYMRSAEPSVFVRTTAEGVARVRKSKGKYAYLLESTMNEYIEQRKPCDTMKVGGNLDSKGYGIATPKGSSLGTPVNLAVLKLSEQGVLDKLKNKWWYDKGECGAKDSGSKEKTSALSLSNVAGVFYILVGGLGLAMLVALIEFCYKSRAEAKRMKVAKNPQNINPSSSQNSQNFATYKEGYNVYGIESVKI

B1: FN1040 (ssRNA)
RNA: GGGAGAAUUCAACUGCCAUCUAGGCACGCUACUGUGAGUGUUGUGAUGGCGGCUGAACGAUCGAAACGGAACUGUAGUACUACAAGCUUCUGGACUCGGU
modifications: 2'-F at all A, C and U; G is 2'-OH
In the case of B1, the Ki in data set [1] was 2.3 µM. The affinity in data set [2], expressed as Kd, was 0.02 µM.
